Reference: patent US20120121591A1 (priority 2009, published 2012)
Like-named read-outs stand apart in the source and are kept apart here. Positions of bridges follow the written chain, without caps; N, C: chain ends. Non-standard residues stand in square brackets, D forms with d. Residues, ends and D or L forms follow the SMILES beside them. Nva = CCC[C@H](N)C(=O)O

How the values were obtained:
hKv1.1 = hKv1.1 (Homo sapiens, UniProt Q09470); assay: cell-based; settings: Kv1.1 (IWQ) IC50 (nM, Avg)
Sequence of hKv1.1 (Q09470 whole entry): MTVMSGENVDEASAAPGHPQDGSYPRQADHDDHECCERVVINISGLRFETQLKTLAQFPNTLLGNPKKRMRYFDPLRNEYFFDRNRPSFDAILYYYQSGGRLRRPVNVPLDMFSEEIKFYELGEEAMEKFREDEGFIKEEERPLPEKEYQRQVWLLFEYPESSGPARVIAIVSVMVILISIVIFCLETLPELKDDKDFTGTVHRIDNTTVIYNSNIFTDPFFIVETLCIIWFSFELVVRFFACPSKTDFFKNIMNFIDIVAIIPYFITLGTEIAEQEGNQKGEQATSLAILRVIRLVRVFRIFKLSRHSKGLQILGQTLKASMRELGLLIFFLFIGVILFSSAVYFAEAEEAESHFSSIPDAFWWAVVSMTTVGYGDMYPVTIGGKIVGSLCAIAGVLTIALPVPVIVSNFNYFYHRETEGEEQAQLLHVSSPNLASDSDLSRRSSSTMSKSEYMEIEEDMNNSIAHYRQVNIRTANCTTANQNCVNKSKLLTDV

[1] = test system: IL-2 secretion from T cells in human whole blood; format: cell-based
[2] = test system: IFN-g secretion from T cells in human whole blood; format: cell-based
hKv1.3 = hKv1.3 (Homo sapiens, UniProt P22001); assay: cell-based; format: cell-based
Sequence of hKv1.3 (P22001 whole entry): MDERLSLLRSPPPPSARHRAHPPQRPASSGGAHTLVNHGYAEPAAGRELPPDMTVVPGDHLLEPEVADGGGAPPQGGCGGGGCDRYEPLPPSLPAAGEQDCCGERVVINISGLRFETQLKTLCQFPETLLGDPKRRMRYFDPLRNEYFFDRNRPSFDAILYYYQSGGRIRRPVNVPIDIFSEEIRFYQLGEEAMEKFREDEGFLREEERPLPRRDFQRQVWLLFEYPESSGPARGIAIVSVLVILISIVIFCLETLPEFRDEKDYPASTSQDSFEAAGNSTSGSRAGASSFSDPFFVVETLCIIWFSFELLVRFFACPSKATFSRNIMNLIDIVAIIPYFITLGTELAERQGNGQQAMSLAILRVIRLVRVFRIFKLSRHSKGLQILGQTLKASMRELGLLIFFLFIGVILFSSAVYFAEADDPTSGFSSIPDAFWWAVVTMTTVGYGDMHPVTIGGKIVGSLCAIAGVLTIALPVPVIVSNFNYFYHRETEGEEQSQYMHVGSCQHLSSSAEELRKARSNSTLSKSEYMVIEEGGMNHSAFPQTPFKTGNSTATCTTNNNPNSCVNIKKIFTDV

hKv1.6 = hKv1.6 (Homo sapiens, UniProt P17658); format: cell-based; settings: PatchXpress; read-out: Kv1.6 IC50
Sequence of hKv1.6 (P17658 whole entry): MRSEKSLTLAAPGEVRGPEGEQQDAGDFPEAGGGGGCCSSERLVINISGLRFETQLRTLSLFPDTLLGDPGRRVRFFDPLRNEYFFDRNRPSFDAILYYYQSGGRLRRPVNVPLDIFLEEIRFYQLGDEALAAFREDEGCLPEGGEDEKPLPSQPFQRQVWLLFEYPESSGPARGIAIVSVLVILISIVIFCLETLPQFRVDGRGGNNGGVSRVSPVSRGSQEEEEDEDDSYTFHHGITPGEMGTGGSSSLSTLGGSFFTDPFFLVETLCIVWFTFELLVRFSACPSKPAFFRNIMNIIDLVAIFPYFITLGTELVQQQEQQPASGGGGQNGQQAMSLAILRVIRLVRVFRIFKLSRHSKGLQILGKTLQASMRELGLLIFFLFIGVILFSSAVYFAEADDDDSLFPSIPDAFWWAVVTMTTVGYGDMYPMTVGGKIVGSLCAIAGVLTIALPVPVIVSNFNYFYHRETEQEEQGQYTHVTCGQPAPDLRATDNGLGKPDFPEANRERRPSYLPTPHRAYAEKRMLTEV
Method: (§1) Kv1.1, Kv1.2, Kv1.3, Kv1.4, Kv1.6 and Kv1.7, PatchXpress®, planar patch-clamp electrophysiology. Ion channel currents were recorded at room temperature using PatchXpress® 7000A electrophysiology system from MDC using methods and cells described in Example 1 above.

hKv1.7 = hKv1.7 (Homo sapiens, UniProt Q96RP8); format: cell-based; settings: PatchXpress; read-out: Kv1.7 IC50
Sequence of hKv1.7 (Q96RP8 whole entry): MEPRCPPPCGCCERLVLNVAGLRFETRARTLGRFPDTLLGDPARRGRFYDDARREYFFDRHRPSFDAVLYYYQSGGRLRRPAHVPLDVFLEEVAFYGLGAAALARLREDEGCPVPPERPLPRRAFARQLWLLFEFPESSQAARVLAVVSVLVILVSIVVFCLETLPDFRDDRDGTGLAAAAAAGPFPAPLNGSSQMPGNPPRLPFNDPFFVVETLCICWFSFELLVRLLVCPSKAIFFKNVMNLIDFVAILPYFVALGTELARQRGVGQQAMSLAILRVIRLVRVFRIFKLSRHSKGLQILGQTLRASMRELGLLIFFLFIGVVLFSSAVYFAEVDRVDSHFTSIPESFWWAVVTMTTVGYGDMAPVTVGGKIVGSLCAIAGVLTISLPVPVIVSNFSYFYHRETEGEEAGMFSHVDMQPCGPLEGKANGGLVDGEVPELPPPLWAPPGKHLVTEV
Method: as §1

hKv1.4 = hKv1.4 (Homo sapiens, UniProt P22459); format: cell-based; settings: PatchXpress; read-out: Kv1.4 IC50
Sequence of hKv1.4 (P22459 whole entry): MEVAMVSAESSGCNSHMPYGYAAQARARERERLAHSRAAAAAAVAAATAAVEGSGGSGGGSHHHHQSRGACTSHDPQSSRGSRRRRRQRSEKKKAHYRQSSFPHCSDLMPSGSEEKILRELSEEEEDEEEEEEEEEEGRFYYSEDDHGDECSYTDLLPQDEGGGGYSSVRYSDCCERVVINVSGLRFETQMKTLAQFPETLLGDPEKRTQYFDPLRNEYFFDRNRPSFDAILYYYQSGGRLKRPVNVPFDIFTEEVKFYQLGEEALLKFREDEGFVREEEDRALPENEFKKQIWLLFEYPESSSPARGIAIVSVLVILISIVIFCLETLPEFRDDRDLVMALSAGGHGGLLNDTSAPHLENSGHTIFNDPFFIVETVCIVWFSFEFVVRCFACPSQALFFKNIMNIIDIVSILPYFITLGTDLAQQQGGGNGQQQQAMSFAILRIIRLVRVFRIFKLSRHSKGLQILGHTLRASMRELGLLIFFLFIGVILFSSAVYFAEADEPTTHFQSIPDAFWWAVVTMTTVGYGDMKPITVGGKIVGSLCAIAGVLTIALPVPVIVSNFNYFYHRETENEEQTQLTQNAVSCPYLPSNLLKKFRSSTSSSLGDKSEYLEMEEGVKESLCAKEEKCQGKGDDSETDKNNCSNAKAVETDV
Method: as §1

hKv1.2 = hKv1.2 (Homo sapiens, UniProt P16389); format: cell-based; settings: PatchXpress; read-out: Kv1.2 IC50
Sequence of hKv1.2 (P16389 whole entry): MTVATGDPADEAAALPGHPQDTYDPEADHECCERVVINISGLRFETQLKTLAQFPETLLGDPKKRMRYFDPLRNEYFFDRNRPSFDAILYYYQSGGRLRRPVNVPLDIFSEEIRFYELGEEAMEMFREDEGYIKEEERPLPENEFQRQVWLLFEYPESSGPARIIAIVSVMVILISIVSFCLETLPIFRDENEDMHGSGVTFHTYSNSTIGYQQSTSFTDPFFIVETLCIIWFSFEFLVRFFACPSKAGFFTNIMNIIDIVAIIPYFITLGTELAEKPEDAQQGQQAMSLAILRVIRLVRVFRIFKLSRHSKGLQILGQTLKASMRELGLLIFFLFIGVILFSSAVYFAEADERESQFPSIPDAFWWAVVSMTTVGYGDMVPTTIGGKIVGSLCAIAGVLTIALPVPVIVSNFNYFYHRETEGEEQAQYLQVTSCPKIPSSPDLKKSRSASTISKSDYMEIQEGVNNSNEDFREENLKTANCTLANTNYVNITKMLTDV
Method: as §1

hKv1.5 = hKv1.5 (Homo sapiens, UniProt P22460); settings: read-out: Kv1.5 IC50; PatchXpress
Sequence of hKv1.5 (P22460 whole entry): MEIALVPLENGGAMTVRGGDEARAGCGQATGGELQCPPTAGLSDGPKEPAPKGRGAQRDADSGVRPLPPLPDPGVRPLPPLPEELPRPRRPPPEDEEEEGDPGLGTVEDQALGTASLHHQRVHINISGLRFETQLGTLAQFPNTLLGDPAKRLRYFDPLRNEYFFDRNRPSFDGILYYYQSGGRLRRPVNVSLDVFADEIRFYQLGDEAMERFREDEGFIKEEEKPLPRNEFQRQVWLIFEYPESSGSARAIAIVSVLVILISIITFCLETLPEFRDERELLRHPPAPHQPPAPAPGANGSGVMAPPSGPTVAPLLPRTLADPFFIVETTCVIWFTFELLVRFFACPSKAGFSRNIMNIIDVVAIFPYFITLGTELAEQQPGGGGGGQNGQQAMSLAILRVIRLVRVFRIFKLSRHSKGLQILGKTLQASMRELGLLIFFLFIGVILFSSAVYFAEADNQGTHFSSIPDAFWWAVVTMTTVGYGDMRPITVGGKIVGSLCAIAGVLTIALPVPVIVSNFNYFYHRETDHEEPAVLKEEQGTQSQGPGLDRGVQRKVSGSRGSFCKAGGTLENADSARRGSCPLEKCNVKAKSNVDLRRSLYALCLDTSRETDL

human Kv1.3 = human Kv1.3 (Homo sapiens, UniProt P22001); format: cell-based; settings: read-out: Kv1.3 IC50, whole cell patch clamp
Sequence of human Kv1.3 (P22001 whole entry): as the sequence (P22001 whole entry) above

[3] = format: in vivo, rat
Text: Single subcutaneous doses were delivered to animals and serum was collected at various time points after injection. Studies in rats, dogs (beagles), and cynomolgus monkeys involved two to three animals per dose group, with blood and serum collection occurring at various time points over the course of the study. Male Sprague-Dawley (SD) rats (about 0.3 kg), male beagles (about 10 kg) and male cynomolgus monkeys (about 4 kg) were used in the studies described herein (n=3 animals per dose group). Approximately 5 male CD-1 mice were used per dose and time point in our mouse pharmacokinetic studies. Serum samples were stored frozen at −80° C., until analysis in an enzyme-linked immunosorbent assay (ELISA).
Single subcutaneous doses were delivered to animals and serum was collected at various time points after injection. Three animals were used per dose group, with blood and serum collection occurring at various time points over the course of the study. Serum samples were stored frozen at −80° C., until analysis in an enzyme-linked immunosorbent assay (ELISA). […] A brief description of these ELISA protocols is provided: […]

[4] = test system: rat T effector memory cell line, PAS; format: cell-based; settings: read-out: IC50 inhibition of myelin-specific proliferation of PAS T cells
[5] = Sprague-Dawley rats, single SC 6 mg/kg

In the case of CCC[C@@H]1NC(=O)[C@H](CO)NC(=O)[C@H]([C@@H](C)O)NC(=O)[C@H](CCCNC(=N)N)NC(=O)[C@@H]2CSSC[C@@H]3NC(=O)[C@H]([C@@H](C)O)NC(=O)[C@H](CCCCN)NC(=O)[C@H](CCCNC(=N)N)NC(=O)[C@H](CSSC[C@H](NC(=O)[C@H](CCC(=O)O)NC(=O)[C@H](CO)NC(=O)[C@H](C(C)C)NC(=O)[C@@H]4CCCN4C(=O)[C@H]([C@@H](C)CC)NC(=O)[C@H](CC(C)C)NC(=O)[C@H](CC(=O)O)NC(=O)[C@H](CCCCN)NC(=O)[C@@H](NC(=O)[C@@H](NC(=O)[C@@H](N)CCCNC(=N)N)[C@@H](C)O)CSSC[C@@H](C(N)=O)NC(=O)[C@H](CO)NC(=O)CNC3=O)C(=O)N[C@@H]([C@@H](C)O)C(=O)N[C@@H](CC(=O)O)C(=O)N[C@@H]([C@@H](C)CC)C(=O)N[C@@H](CCCCN)C(=O)N2)NC(=O)[C@H](CC(C)C)NC(=O)[C@H](CC(N)=O)NC(=O)[C@H](CC(C)C)NC(=O)[C@H](CCCNC(=N)N)NC(=O)[C@H](Cc2ccc(O)cc2)NC(=O)[C@H](CCCCN)NC1=O [[Lys16, Nva21]HmK-amide] (H-RTCKDLIPVSECTDIKCRTS[Nva]KYRLNLCRKTCGSC-NH2; disulfide 3-35, 12-28, 17-32), the IC50 (hKv1.1) is reported as 0.58 nM, the “WB (IL-2) Potency Relative to ShK” value [1] is reported as 148.53 and the IC50 ([1]; read-out: WB (IL-2) IC50 (nM, Avg)) is reported as 6.39 nM. The “WB (IFNg) Potency Relative to ShK” value [2] was 188.96, the IC50 ([2]; read-out: WB (IFNg) IC50 (nM, Avg)) was 9.83 nM and the “Kv1.1/Kv1.3 Selectivity Ratio” value (hKv1.3) was 0.025. The IC50 (hKv1.3; Kv1.3 (IWQ) IC50 (nM, Avg)) was 23 nM.
For “Monovalent aKLH HC-ShK(1-35 Q16K) Ab: anti-KLH IgG2 antibody with [Lys16]ShK fused to the C-terminus of one heavy chain”, the IC50 (hKv1.6) was > 616 nM, the IC50 (hKv1.7) was > 10000 nM and the IC50 (hKv1.4) was > 10000 nM. For the same molecule, the IC50 (hKv1.2) was 7970 nM, the IC50 (hKv1.5) was > 10000 nM and the IC50 (human Kv1.3) was 0.354 nM. For the same molecule, the “Exposure (AUC0-inf) normalized for MW, times greater than ShK-L5” value ([3]; 150 kDa//4 kDa) was “about 163 times”, the AUC0-t [3, 5] was 481 ± 157 µg·h/mL and the Cmax [3, 5] was 5890 ± 1770 ng/mL. For the same molecule, the HL [3, 5] was 32 ± 13.9 h, the Tmax [3, 5] was 32 ± 13.9 h and the IC50 ([1]; read-out: WB (IL-2) IC50) was 0.292 nM. It also gave an IC50 ([2]; read-out: WB (IFNg) IC50) of 0.657 nM and an IC50 [4] of 0.839 nM.
